# Reference: patent US20130058934A1
# B1: scFv08168-D7 (scFv, part only; not given: Linker and His tag, V domains shown, not shown: another chain or arm of the molecule; small tags and cut ends)
# VH: QVQLVESGGGLVQPGGSLRLSCAASGFTFSDYVMNWVRQAPGKGLEWVSGISWSGVNTHYADSVKGRFTISRDNSKNTLYLQMNSLRAEDTAVYYCARLGATANNIRYKFMDVWGQGTLVTVSS
# VL: DIELTQPPSVSVAPGQTARITCSGDSLRNKVYWYQQKPGQAPVLVIYKNNRPSGIPERFSGSNSGNTATLTISGTQAEDEADYYCQSYDGQKSLVFGGGTKLTVL
# B2: scFv08168-D6 (scFv, part only; not given: Linker and His tag, V domains shown, not shown: another chain or arm of the molecule; small tags and cut ends)
# VH: QVQLVESGGGLVQPGGSLRLSCAASGFTFSDYVMNWVRQAPGKGLEWISGISWSGVNTHYADSVKGRFTISRDNSKNTLYLQMNSLRAEDTAVYYCARLGATANNIRYKFMDVWGQGTLVTVSS
# VL: DIELTQPPSVSVAPGQTARISCSGDSLRNKVYWYQQKPGQAPVLVIYKNNRPSGIPERFSGSNSGNTATLTISGTQAEDEADYYCQSYDGQKSLVFGGGTKLTVL
# B3: scFv08168-D9 (scFv, part only; not given: Linker and His tag, V domains shown, not shown: another chain or arm of the molecule; small tags and cut ends)
# VH: QVQLVESGGGLVQPGGSLRLSCAASGFTFSDYVMNWVRQAPGKGLEWVSGISWSGVNTHYADSVKGRFTISRDNSKNTLYLQMNSLRAEDTAVYYCARLGATANNIRYKFMDVWGQGTLVTVSS
# VL: DIELTQPPSVSVAPGQTARISCSGDSLRNKVYWYQQKPGQAPVLVIYKNNRPSGIPERFSVSNSGNTATLTISGTQAEDEADYYCQSYDGQKSLVFGGGTKLTVL
# B4: MOR08168 Fab (Fab, V domains shown)
# VH: QVQLVESGGGLVQPGGSLRLSCAASGFTFSDYVINWVRQAPGKGLEWVSGISWSGVNTHYADSVKGRFTISRDNSKNTLYLQMNSLRAEDTAVYYCARLGATANNIRYKFMDVWGQGTLVTVSS
# VL: DIELTQPPSVSVAPGQTARISCSGDSLRNKVYWYQQKPGQAPVLVIYKNNRPSGIPERFSGSNSGNTATLTISGTQAEDEADYYCQSYDGQKSLVFGGGTKLTVL
# B5: MOR06706 Fab (Fab, V domains shown)
# VH: QVQLVESGGGLVQPGGSLRLSCAASGFTFSDYAIHWVRQAPGKGLEWVSGISYSGSSTHYADSVKGRFTISRDNSKNTLYLQMNSLRAEDTAVYYCARGSHGNIMAKRYFDFWGQGTLVTVSS
# VL: DIELTQPPSVSVAPGQTARISCSGDNIRKKYVYWYQQKPGQAPVLVIYEDSKRPSGIPERFSGSNSGNTATLTISGTQAEDEADYYCSTADSGINNGVFGGGTKLTVL
# B6: MOR06475 Fab (Fab, V domains shown)
# VH: QVQLKESGPALVKPTQTLTLTCTFSGFSLSNRGGGVGWIRQPPGKALEWLAWIDWDDDKSYSTSLKTRLTISKDTSKNQVVLTMTNMDPVDTATYYCARMHLPLVFDSWGQGTLVTVSS
# VL: DIVLTQSPATLSLSPGERATLSCRASQFIGSRYLAWYQQKPGQAPRLLIYGASNRATGVPARFSGSGSGTDFTLTISSLEPEDFATYYCQQYYDYPQTFGQGTKVEIK
# B7: MOR08545 Fab (Fab, V domains shown)
# VH: QVQLVESGGGLVQPGGSLRLSCAASGFTFSVNGMHWVRQAPGKGLEWVSVIDGMGHTYYADSVKGRFTISRDNSKNTLYLQMNSLRAEDTAVYYCARYDYIKYGAFDPWGQGTLVTVSS
# VL: DIELTQPPSVSVAPGQTARISCSGDNIGSKYVHWYQQKPGQAPVLVIYGDSNRPSGIPERFSGSNSGNTATLTISGTQAEDEADYYCTRTSTPISGVFGGGTKLTVLG
# Biological target: human LRP6 (human) (UniProt O75581)
# Test: not given
# human LRP6 (human), sequence (O75581 20-1613): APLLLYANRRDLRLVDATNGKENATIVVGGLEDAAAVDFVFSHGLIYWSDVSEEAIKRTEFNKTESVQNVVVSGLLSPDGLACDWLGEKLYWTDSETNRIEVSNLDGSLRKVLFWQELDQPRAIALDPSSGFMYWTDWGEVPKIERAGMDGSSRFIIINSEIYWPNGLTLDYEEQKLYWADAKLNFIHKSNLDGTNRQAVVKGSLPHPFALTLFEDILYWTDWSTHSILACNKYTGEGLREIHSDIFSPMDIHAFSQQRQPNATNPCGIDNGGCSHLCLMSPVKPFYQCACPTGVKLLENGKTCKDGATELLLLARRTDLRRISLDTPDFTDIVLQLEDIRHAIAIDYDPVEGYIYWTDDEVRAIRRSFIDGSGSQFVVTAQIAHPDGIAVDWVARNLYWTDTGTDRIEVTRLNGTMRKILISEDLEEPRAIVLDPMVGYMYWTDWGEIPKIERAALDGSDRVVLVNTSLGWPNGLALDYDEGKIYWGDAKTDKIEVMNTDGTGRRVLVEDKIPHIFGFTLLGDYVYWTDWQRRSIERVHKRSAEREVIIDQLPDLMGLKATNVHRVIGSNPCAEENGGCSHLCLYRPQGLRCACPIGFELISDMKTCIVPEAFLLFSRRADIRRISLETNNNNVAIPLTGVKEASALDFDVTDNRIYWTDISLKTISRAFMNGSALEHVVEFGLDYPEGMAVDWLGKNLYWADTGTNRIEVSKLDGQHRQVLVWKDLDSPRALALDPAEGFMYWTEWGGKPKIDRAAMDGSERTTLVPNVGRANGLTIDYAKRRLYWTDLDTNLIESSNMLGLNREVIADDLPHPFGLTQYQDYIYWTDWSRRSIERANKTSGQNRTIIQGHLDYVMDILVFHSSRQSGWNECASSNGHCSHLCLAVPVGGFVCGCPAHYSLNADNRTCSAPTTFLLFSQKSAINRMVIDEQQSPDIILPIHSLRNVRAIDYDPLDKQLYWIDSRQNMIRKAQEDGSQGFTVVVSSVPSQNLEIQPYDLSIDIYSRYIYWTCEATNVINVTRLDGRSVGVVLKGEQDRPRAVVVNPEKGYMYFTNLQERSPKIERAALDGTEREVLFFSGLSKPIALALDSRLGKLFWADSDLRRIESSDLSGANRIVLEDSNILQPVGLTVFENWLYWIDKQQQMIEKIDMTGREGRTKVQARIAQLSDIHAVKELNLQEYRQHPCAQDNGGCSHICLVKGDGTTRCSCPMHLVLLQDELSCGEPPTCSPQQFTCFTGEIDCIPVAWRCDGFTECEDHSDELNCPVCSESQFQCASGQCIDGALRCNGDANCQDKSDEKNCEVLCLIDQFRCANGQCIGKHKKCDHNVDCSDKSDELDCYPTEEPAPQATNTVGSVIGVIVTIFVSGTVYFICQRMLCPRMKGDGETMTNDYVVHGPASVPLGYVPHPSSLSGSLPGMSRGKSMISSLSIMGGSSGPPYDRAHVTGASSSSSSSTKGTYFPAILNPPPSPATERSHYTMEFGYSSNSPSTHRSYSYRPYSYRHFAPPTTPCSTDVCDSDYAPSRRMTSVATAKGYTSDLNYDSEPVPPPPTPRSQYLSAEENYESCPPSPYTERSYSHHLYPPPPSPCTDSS
row,Binder,IC50 by STF assay for Wnt1 inhibition [nM]
1,B1,4.81
2,B2,0.74
3,B3,11.1

# Biological target: cynomolgus LRP6 (cynomolgus)
# Test: FACS on HEK293T/17 cells transiently transfected with cynomolgus LRP6
row,Binder,EC50 [nM]
1,B4,0.88
2,B5,0.46
3,B6,0.22
4,B7,0.3
